Experimental data: the supplement of paper PMC7125110
± gives the standard error. For some assays here: This sample holds only a part of the variants without activity.

B1: glmS ribozyme (parent)
chain: AUAAAAGCGCCAGAACUACAGAAAUGUAGUUGACGAGGAGGAGGUUUAUCGAAUUUUCGGCGGAUGCCUCCAAA

Experiments:
Details in all cases: with glucosamine-6-phosphate
glucosamine-6-phosphate [1] = variants of: B1; test: kcat; higher = faster cleavage; RNA array
Method in brief: (§1)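 Glucosamine-6-phosphate in HEPES/KCl/Mg(OAc)2 buffer, at 40 μM to 10 mM, was flowed over barcoded ribozyme variants transcribed in situ by E. coli RNA polymerase on sequenced MiSeq chips. Tracking was through a hybridised Cy3 probe at 37 °C. kobs, kcat and KM came from exponential decay fits and weighted Michaelis–Menten fits of normalised per-tile medians.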

glucosamine-6-phosphate [2] = variants of: B1; test: self-cleavage kobs at 160 uM GlcN6P; higher = faster cleavage; RNA array
Method in brief: as §1

glucosamine-6-phosphate [3] = variants of: B1; test: self-cleavage kobs at 640 uM GlcN6P; higher = faster cleavage; RNA array
Method in brief: as §1

glucosamine-6-phosphate [4] = variants of: B1; test: self-cleavage kobs at 2500 uM GlcN6P; higher = faster cleavage; RNA array
Method in brief: as §1

glucosamine-6-phosphate [5] = variants of: B1; test: self-cleavage kobs at 10000 uM GlcN6P; higher = faster cleavage; RNA array
Method in brief: as §1

glucosamine-6-phosphate [6] = variants of: B1; test: KM; higher = weaker cofactor use; RNA array
Method in brief: as §1

glucosamine-6-phosphate [7] = variants of: B1; test: self-cleavage kobs at 40 uM GlcN6P; higher = faster cleavage; RNA array
Method in brief: as §1

Variant | kcat (glucosamine-6-phosphate [1]) | self-cleavage kobs at 160 uM GlcN6P (glucosamine-6-phosphate [2]) | self-cleavage kobs at 640 uM GlcN6P (glucosamine-6-phosphate [3]) | self-cleavage kobs at 2500 uM GlcN6P (glucosamine-6-phosphate [4]) | self-cleavage kobs at 10000 uM GlcN6P (glucosamine-6-phosphate [5]) | KM (glucosamine-6-phosphate [6]) | self-cleavage kobs at 40 uM GlcN6P (glucosamine-6-phosphate [7])
A14G C58G | 0.00036 ± 0.00013 s⁻¹ | 4.95e-05 ± 1.8e-05 s⁻¹ | 7.22e-05 ± 2.1e-05 s⁻¹ | 0.000115 ± 2.3e-05 s⁻¹ | 0.000276 ± 3.5e-05 s⁻¹ |  | 
A14G C58A | 0.00151 ± 0.00049 s⁻¹ | 6.76e-05 ± 3.4e-05 s⁻¹ | 0.000214 ± 2.3e-05 s⁻¹ | 0.000448 ± 6.1e-05 s⁻¹ | 0.0012 ± 0.00014 s⁻¹ | 4260 ± 2000 µM | 2.97e-05 ± 1e-05 s⁻¹
A14G U65C | 0.00147 ± 0.00035 s⁻¹ | 0.000176 ± 3.5e-05 s⁻¹ | 0.000445 ± 9.2e-05 s⁻¹ | 0.00142 ± 0.00028 s⁻¹ | 0.00124 ± 0.00025 s⁻¹ | 1120 ± 420 µM | 7.25e-05 ± 1.9e-05 s⁻¹
A14G C68A | 9.34e-05 ± 1.3e-05 s⁻¹ | 2.91e-05 ± 1.3e-05 s⁻¹ | 7.66e-05 ± 1.6e-05 s⁻¹ | 0.000105 ± 3.4e-05 s⁻¹ | 7.77e-05 ± 2.1e-05 s⁻¹ | 254 ± 120 µM | 
A14G C68G | 0.000237 ± 2.5e-05 s⁻¹ | 4.57e-05 ± 1.1e-05 s⁻¹ | 0.000123 ± 1.6e-05 s⁻¹ | 0.000181 ± 2.1e-05 s⁻¹ | 0.000235 ± 2.4e-05 s⁻¹ | 590 ± 180 µM | 3.33e-05 ± 1.1e-05 s⁻¹
A14G G32C A53U | 0.000218 ± 7.2e-05 s⁻¹ |  | 4.08e-05 ± 2e-05 s⁻¹ | 6.01e-05 ± 1.8e-05 s⁻¹ | 0.000144 ± 2.8e-05 s⁻¹ |  | 
A14U U30G | 0.00494 ± 0.00089 s⁻¹ | 0.000282 ± 3.6e-05 s⁻¹ | 0.000998 ± 0.0001 s⁻¹ | 0.0033 ± 0.00052 s⁻¹ | 0.00404 ± 0.00036 s⁻¹ | 2220 ± 540 µM | 0.000104 ± 8.8e-06 s⁻¹
A14U A48G | 1.29e-05 ± 5.7e-06 s⁻¹ | < 1e-05 s⁻¹ |  |  |  |  | 
A14U A64U | 1.88e-05 ± 5.9e-07 s⁻¹ |  |  |  |  | 8870 ± 560 µM | 
A14G G29U U47G C70G | 8.6e-05 ± 1.6e-05 s⁻¹ |  | 0.000119 ± 3.1e-05 s⁻¹ | 6.72e-05 ± 1.5e-05 s⁻¹ | 0.000118 ± 2.8e-05 s⁻¹ |  | 
A14U A33U A42G | 9.54e-05 ± 3.1e-05 s⁻¹ |  |  | 7.08e-05 ± 1.9e-05 s⁻¹ | 7.49e-05 ± 2.6e-05 s⁻¹ |  | 
A14G A52C | 4.48e-05 ± 2.1e-06 s⁻¹ |  |  | 1.73e-05 ± 7.9e-06 s⁻¹ | 3.23e-05 ± 1.3e-05 s⁻¹ | 3920 ± 400 µM | 
A14U C71G | 0.000432 ± 8.9e-05 s⁻¹ | 5.71e-05 ± 1.1e-05 s⁻¹ | 0.000111 ± 1.3e-05 s⁻¹ | 0.000237 ± 3.2e-05 s⁻¹ | 0.000402 ± 4.2e-05 s⁻¹ | 1620 ± 630 µM | 2.7e-05 ± 9.2e-06 s⁻¹
A14G U31A U57A C71G | 2.93e-05 ± 8.2e-06 s⁻¹ |  |  |  |  |  | 
A14U G44A | 6.83e-05 ± 2.6e-06 s⁻¹ | < 1e-05 s⁻¹ |  | 3.21e-05 ± 6.8e-06 s⁻¹ | 5.38e-05 ± 6.7e-06 s⁻¹ | 2730 ± 310 µM | 
A14U G44U | 7.47e-05 ± 1.1e-05 s⁻¹ |  |  | 3.42e-05 ± 8.1e-06 s⁻¹ | 5.55e-05 ± 8.3e-06 s⁻¹ | 3310 ± 1300 µM | < 1e-05 s⁻¹

Variant | kcat (glucosamine-6-phosphate [1]) | self-cleavage kobs at 160 uM GlcN6P (glucosamine-6-phosphate [2]) | self-cleavage kobs at 640 uM GlcN6P (glucosamine-6-phosphate [3]) | self-cleavage kobs at 2500 uM GlcN6P (glucosamine-6-phosphate [4]) | self-cleavage kobs at 10000 uM GlcN6P (glucosamine-6-phosphate [5]) | KM (glucosamine-6-phosphate [6]) | self-cleavage kobs at 40 uM GlcN6P (glucosamine-6-phosphate [7])
A14G G37C A48G | 1.62e-05 ± 5.8e-06 s⁻¹ |  |  |  |  |  | 
A14G U31A C67G | 0.00052 ± 0.00021 s⁻¹ | 0.000163 ± 3.6e-05 s⁻¹ | 0.000237 ± 6e-05 s⁻¹ | 0.000368 ± 0.00011 s⁻¹ | 0.000966 ± 0.0003 s⁻¹ |  | 
A14U A15U | 0.00245 ± 0.00036 s⁻¹ | 0.000141 ± 1.6e-05 s⁻¹ | 0.000602 ± 7.4e-05 s⁻¹ | 0.00125 ± 0.00014 s⁻¹ | 0.00202 ± 0.00018 s⁻¹ | 2240 ± 500 µM | 5.71e-05 ± 7.8e-06 s⁻¹
A14U G29C | 1.25e-05 ± 3.3e-06 s⁻¹ |  |  |  |  |  | 
A14U A53C | 0.00136 ± 0.00017 s⁻¹ | 9.57e-05 ± 1.5e-05 s⁻¹ | 0.000309 ± 3.9e-05 s⁻¹ | 0.000834 ± 7.7e-05 s⁻¹ | 0.00105 ± 0.00014 s⁻¹ | 1970 ± 410 µM | 3.59e-05 ± 9.1e-06 s⁻¹
A14G U57G | 0.000171 ± 2.6e-06 s⁻¹ |  | 3.71e-05 ± 8e-06 s⁻¹ | 8.67e-05 ± 9.4e-06 s⁻¹ | 0.000139 ± 1.3e-05 s⁻¹ | 2380 ± 88 µM | 
A14G U56C | 0.021 ± 0.0052 s⁻¹ | 0.000647 ± 0.00018 s⁻¹ | 0.0033 ± 0.00071 s⁻¹ | 0.0088 ± 0.0011 s⁻¹ | 0.0157 ± 0.0028 s⁻¹ | 3490 ± 1200 µM | 0.000291 ± 4.2e-05 s⁻¹
A14G G35C | < 1e-05 s⁻¹ | < 1e-05 s⁻¹ | < 1e-05 s⁻¹ | < 1e-05 s⁻¹ |  |  | < 1e-05 s⁻¹
A14G U55C | 0.0632 ± 0.029 s⁻¹ | 0.00449 ± 0.00098 s⁻¹ | 0.0382 ± 0.012 s⁻¹ |  | 0.0522 ± 0.015 s⁻¹ |  | 0.00179 ± 0.00021 s⁻¹
A14U C68U | 0.00143 ± 0.00047 s⁻¹ | 6.57e-05 ± 1.2e-05 s⁻¹ | 0.000297 ± 3.8e-05 s⁻¹ | 0.000422 ± 6.8e-05 s⁻¹ | 0.00123 ± 0.00011 s⁻¹ |  | 2.73e-05 ± 7.7e-06 s⁻¹
A14U G62A C70G | 5.52e-05 ± 1.4e-05 s⁻¹ |  | 5.47e-05 ± 2e-05 s⁻¹ |  |  |  | 
A14U G32C | 0.000397 ± 4e-05 s⁻¹ |  | 6.36e-05 ± 8.6e-06 s⁻¹ | 0.000199 ± 1.9e-05 s⁻¹ | 0.000294 ± 2.6e-05 s⁻¹ | 3050 ± 580 µM | 
A14U G32A | 0.0126 ± 0.0035 s⁻¹ | 0.00046 ± 0.00011 s⁻¹ | 0.00156 ± 0.00027 s⁻¹ | 0.00376 ± 0.0007 s⁻¹ | 0.0102 ± 0.001 s⁻¹ | 3720 ± 1400 µM | 0.000167 ± 1.7e-05 s⁻¹
A14G U69G | 0.000107 ± 2.2e-05 s⁻¹ | 5.73e-05 ± 1.7e-05 s⁻¹ | 0.000175 ± 3.5e-05 s⁻¹ | 0.000103 ± 2e-05 s⁻¹ | 0.000113 ± 1.8e-05 s⁻¹ |  | 8.24e-05 ± 1.9e-05 s⁻¹
A14G A53U | 0.0349 ± 0.012 s⁻¹ | 0.00482 ± 0.00076 s⁻¹ | 0.011 ± 0.0013 s⁻¹ | 0.0342 ± 0.015 s⁻¹ | 0.0446 ± 0.0086 s⁻¹ | 1060 ± 450 µM | 0.00142 ± 0.00015 s⁻¹
